test: yeast display, Sf9 membrane polyspecificity reagent, FACS + sequencing; frameworks hold sequencing errors
Summary of the method: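 Nanobodies from a synthetic yeast display library (Saccharomyces cerevisiae BJ5465), induced 36–48 hours with galactose, were stained 1 hour at 4 °C with 10% biotinylated, detergent-solubilized Sf9 membrane reagent, enriched on streptavidin microbeads, then FACS-sorted. Anti-HA (expression) and streptavidin (reagent binding) fluorescence set low and high (top ~1%) gates. Polyreactivity labels come from the gate of origin. Genes were colony-PCR amplified, MiSeq 2 × 250 sequenced and filtered by CDR length.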

Sequence | polyreactivity (PSR sort gate)
QVQLVESVGGLVQAGGSLRLSCAASGFTFTWYDMGWYRQAPGKERELVAAITTDGGSTYYADSVKGRFTISRDNATNTVYLQMNSLKPEDTEVYYCAAAGYLPFPVEYEYWGQGTQVTVSS | high polyreactivity
QVQLVESVGGLVQAGGSLRLSCAASGFTFYVYAMGWYRQAPGKERELVAAISRGGSTYYADSVKGRFTISRDNAKNTVYLQMNSLKPEDTAVYYCNRVPYVSSSKVRYSNGFDYWGQGTLVTVSS | low polyreactivity
QVQLVESVGGLVQAGGSLRLSCAASGIIFRANAMGWYRQAPGKERELVAAISGRGSSTTYADSVKGRFTISRDNAKNTVYLQMNSLKPEDTAVYYCAAGYGKWFATWRSQKYDYWGQGTQVTVSS | high polyreactivity
QVQLVESVGGLVQAGGSLRLSCAASGITFFNYAMGWYRQAPGKERELVARINWSGGSTYYADSVTGRFTISRDNAKNTVYLQMNSLKPEDTAVYYCAARYWLPRGRRYDYWGQGTQVTVSS | high polyreactivity
QVQLVESVGGLVQAGGSLRLSCAASGITFPYYAMGWYRQAPGKERELVAAISRGDSTYYADSVKGRFTISRDNAKNTVYLQMNSLKPEDTAVYYCAARYGRYWSSCGSWTPYGYWGQGTQVTVSS | high polyreactivity
QVQLVESVGGLVQAGGSLRLSCAASGITIADNAMGWYRQAPRKERELVAAITSGGSTYYADAVKGRFTISRDNAKNTVYFQLNSLKPEDTGVYYCIVRVRRLFYWARLVAYDYWGQGSQVTVSS | high polyreactivity
QVQLVESVGGLVQAGGSLRLSCAASGLIFASYAMGWYRQAPGKERELVAAISWSGGSTYYADSVKGRFTISRDYAKITVYLQMNSLKPEDTAVYYCAAIRYAYGSLDYWGQGTQVTVSS | high polyreactivity
QVQLVESVGGLVQAGGSLRLSCAASGRIFAPNAMGRYRQAPGKERELVAAITSRGSRTYYADSVKGRFTISRDIAKNTVYLQMKSLKPEDTAVYYCATPYRAPWGTARNYGLYYYWGQGTQVTVSS | high polyreactivity
QVQLVESVGGLVQAGGSLRLSCAASGRIFGYNAMGWYRQAPGKEWELVAGITSVGRTYYADSVNGRFTISRDNAKNTVYLQMNSLKPEDTAVYYCNAASYSLAVTAEFEDMDYWGQGTQVTVSS | low polyreactivity
QVQLVESVGGLVQAGGSLRLSCAASGRIFRKYDMGWYRQAPGKERELVAAISGTGITYYADSVKGRFTISRDNAKNTVYLQMNSLKPEDTAVYYCARGSKPRAWSWAYPSATSIYDYWGQGTQVTVSS | low polyreactivity
QVQLVESVGGLVQAGGSLRLSCAASGRIFRYYAMGWYRQAPGKERELVAAISISGGRTYYADSVKGRFSISRDNAKNTVYLQMNSLKPEDTAVYYCNADPYWYDRDKKYDYWGQGTQVTVSS | high polyreactivity
QVQLVESVGGLVQAGGSLRLSCAASGRIFYTYAMGWYRPAPGKERELVAAISSRTGSTYYADSVKGRFTISRDNAKNTVYLQMNSLKPEDTAVYYCNAYRLRYGYDYWGQGTQVTVSS | high polyreactivity
QVQLVESVGGLVQAGGSLRLSCAASGRPFKKYAMGCYRQAPGKERALVAAITGSGGSTYYADAVKGRFTSSRDNAKKTVYLQMNSLKPEDTAVYYCAAYAYGVWHSHDGGNYWGQGTQVTVSS | low polyreactivity
QVQLVESVGGLVQAGGSLRLSCAASGRTFARYAMGWERQAPGQERELVAAISRNTGSTYADSVKGRFTISRDNAKNTVSLQMNSLKPEDTAVYYFASSWRGQDPYYRYVGRDYWGQGTQVTVSS | high polyreactivity
QVQLVESVGGLVQAGGSLRLSCAASGRTFFKYAMGWYRQAPGKERELVAAITASGGSTYYADSVKGRFTISRDNAKNTVYLQMNSLKPEDTAVYYCAARWRSVFWEYYYWGQGTQVTLSS | high polyreactivity
QVQLVESVGGLVQAGGSLRLSCAASGRTFGVYAMGWYRQAPGKERELVAAISRRAGNTYYADSVKGRFTISRDNAKNTVYLQMNSLKPEDTAVYYCAAYFSRQYGYWGLGTQVTVSS | high polyreactivity
QVQLVESVGGLVQAGGSLRLSCAASGRTFLNYAMGWYRQAPGKEREFVAAITWRVGTTYYADSVKGRFTISRDNAKNTVYLQMNSLKPEDTAVYYCNAVTARQSSQGEMDYWGQGTQVTVSS | high polyreactivity
QVQLVESVGGLVQAGGSLRLSCAASGRTFQYNAMGWYRPAPGKERELVAAISSSGGSTYYADSVKGRFTISRDNAKNTVYLQMNSLKPEDTAVYYCNAYSQSWNFYGDGDYWGQGTQVTVSS | low polyreactivity
QVQLVESVGGLVQAGGSLRLSCAASGRTFRTYTMGWYRQAPGKERELVAAIRSSGGRTYYADSVKGRFTISRDNAKNTVYLQMNSLKPEDTAVYYCAREYRGALHYYYCGQGTQVTVSS | high polyreactivity
QVQLVESVGGLVQAGGSLRLSCAASGRTFRYYTMGWYRQAPGKERELVASISWSGGSTYYADSVKGRFTISRDNAKNTVYLQMNSLKPEDTAVYYCNAVYGYRGVTNMDYWGQGTQVTVSS | high polyreactivity
QVQLVESVGGLVQAGGSLRLSCAASGSIFAYNTMGWYRQAPGKERELVAAIRSRGGSTYYADSVKGRFTISRDNAKNTVYIQMNSLKPEDTPVSSCNAVGRARTLGSNTYGYWGQGTQVTVSS | high polyreactivity
QVQLVESVGGLVQAGGSLRLSCAASGSIFDRYAMGWYRQAPGKERELVAAISTGGSTNYADSVKGRFTISRDNAKNTVYLQMNSLKPEDTAVYYCAARYLYRMYYWGQGTQVTVSS | low polyreactivity

Sequence | polyreactivity (PSR sort gate)
QVQLVESVGGLVQAGGSLRLSCAASGSIFRAYAMGWYRQAPGKERELVAAISRSGDSTYYADSVKGRFTISRDNAKNTVYLQMNSLKPEDTADYYCAAQRKPYVRPSGPYKRRDYWGQGTQVTVSS | high polyreactivity
QVQLVESVGGLVQAGGSLRLSCAASGSIFRRYAMGWYRQAPGKERELVAGISSGGYTNYADSVKGRFTISRDNAKNTVYLQMNSLKPEDTAVYYCAAKQYRYVRYRPVDYWGQGTQVTVSS | high polyreactivity
QVQLVESVGGLVQAGGSLRLSCAASGSIFTRNTMGWYRQAPGKERELVAAISGGGSSTYYADSVKGRFTISRDNAKNTVYLQMNSLKPEETAVYYCAASLSRNYGYACYEYWGQGTQVTVSS | high polyreactivity
QVQLVESVGGLVQAGGSLRLSCAASGSIFVNNAMGWYRQAPGKERELVAAISSRSSRTFYADSVKGRFTISRDNAKNTVYLQINSLKPEDTAVYYCNAVGGRKFGEYDYWGQGTQVTVSS | high polyreactivity
QVQLVESVGGLVQAGGSLRLSCAASGSIFYQYAMGWYRQAPGKERELVAAISRSGGSTYYADSVKGRFTISRDIAKNTVYLQMNSLKPEDTAVYYCAADQKSLRMYYWGQGTQVTVSS | high polyreactivity
QVQLVESVGGLVQAGGSLRLSCAASGSNFSVYVMGWYRQAPGKERELVADISRSGGSTYYADSVKGRFTISRDNAKNTVYLQMNSLKPEDTAVYYCAASLYLSWLFEYWGQGTQVTVSS | low polyreactivity
QVQLVESVGGLVQAGGSLRLSCAASGSTFKYNAMGWYRQAHGKERELVAAISRRGGSTYYADSVKGRFTISRDNAKNTVYLQMNSLKPDETAVYYCAADIIRPVTVDYWGQGTQVTVSS | high polyreactivity
QVQLVESVGGLVQAGGSLRLSCAASGSTFNQYAMGWYRHPPGKERELVAAISWSGGRTYYADSVKGRFTISRDNAKNTVYLQMNSLKPEDTSVYYCNKLTRDGRKEDYWGQGTQVTVSS | high polyreactivity
QVQLVESVGGLVQAGGSLRLSCAASGSTFTDYDMGWYRQAPGKERELVADISSGGSTYYADSVKGRFTISRDNAKNTVYLQMNSLKPEDTAVYYCNTDLRLVYRTKGFISWGYDYWGQGTQVTVSS | low polyreactivity
QVQLVESVGGLVQAGGSLRLSCAASGSTFYIYAMRWYRQAPGKERELVARISGSGGSTYYADSVKGRFTISRDNAKNTVYLQMNSLKPEDTAVYYCAADAIYKYYQYYAFPYYRYDYWGLGTQVTVSS | low polyreactivity
QVQLVESVGGLVQAGGSLRLSCAASGSTFYSYSMGWYRQEPGKERELVAAISWNGGSTYYADSVKGRFTISRDNAKNTVYFQMNSLKPEVTAVYYCAARGGYPYWRYYRFYKMDYWGQGTQVTVSS | low polyreactivity
QVQLVESVGGLVQAGGSLRLSCAASGSTSSYYTMGWYRQAPGKERELVAYADSVKGRFTISRDNAKNTVYLQMNSLKPEDTAVYYCAAPRTYYSELTSPYDYWGQGTQVTVSS | low polyreactivity
QVQLVESVGGLVQAGGSLRLSCAASGTLATYAMGWYRQAHGKERELVAAIRYSDGRTYYADSVKGRFTISRDNAKNTVYLLMNSLKPEDTAVYYCAASFRGRGKKLDYWGQGTQVTVSS | low polyreactivity
QVQLVESVGGLVQAGGSLRLSCAASGYTFYRYAMGWYRQAPGKESELVAGISRDGGSTYYADSVKGRFTISRDNAKNTVYLQMNSLKPEDTAVYYCAADKTRYRLGRDYWGQGTQVTVSS | low polyreactivity
QVQLVESVGGLVQAGGSLRLSCADSGFTIYSYAMGWYRQAPGKERELVAAITQSGGSTYYADSVKGRFTISRDNAKNTVYLQMNSLKPEDTAVYYCAAVIYIDYDYGYYYWGQGTQVTVSS | low polyreactivity
QVQLVESVGGLVQAGGSLRLSCADSGSTFYFNAMGWYRQAPGKEREFVAAIEWSGGSTYYADSVKGRFTISRDNAKNTVYLQMNSLKPEDTAVYYCAAPYHYYGNSVGYADYDYWGQGTQVTVSS | low polyreactivity
QVQLVESVGGLVQAGGSLRLSCAGSGFTCGAYAMGWSRQAPRKERELVAAINTRGGSRYYADSVKGRFTISRDNAKNTVYLQMNSLKPEDTAVYYCAASVYFWYDYWGQGTQVTVSS | high polyreactivity
QVQLVESVGGLVQAGGSLRLSCAPSGRIFGKYAMGWYRQAPGKERELVADITWGGGSTNYADSVKGRFTISRDNAKNTVYLQMNSLNPDDTAVYYCATGFYYYLTKTIPYEYEYWGQGTQVTVSS | low polyreactivity
QVQLVESVGGLVQAGGSLRLSCASSVRTFYRYAMGWYRQAPGKERELVAAISRGGRTNYADSVKGRFTISRDNAKNTVYLQMNSLKPEDTAVYYCAVSNYGALYDYWGQGTQVSVSS | high polyreactivity
QVQLVESVGGLVQAGGSLRLSCDASGYIFKNYAMGWYIQAPGKERELVAAINWSGGNTYYADSVKGRFTISRDNAKNTVYLQMNSLKPEDTAVYYCNAVSSLRSYGYNYCGQGTQVTVSS | low polyreactivity
QVQLVESVGGLVQAGGSLRLSCPASGSTFTDYAMGWYRQAPGKERELVAANSWSGGSTYYADSVKGRFTISRDNAKNTVYLQMNSLKPEDTAVYYCAFRYHGYDYWGQGTQVTVSS | high polyreactivity

From the nanobody polyreactivity screen of Harvey et al. (2022)
